# Source: US20130289100 (The Research Foundation for the State University of New York, published 2013)
# Assays:
# Conditions in all cases: chain copies: 4 (inferred)
# [1] = target: T1, GluA2Qflip AMPA receptor subunit (Rattus norvegicus, UniProt P19491-2 P19491-2:22-883); experiment: competition; open-channel conformation; homologous competition with radiolabeled AF44
# [2] = target: T1, GluA2Qflip AMPA receptor subunit; experiment: competition; unliganded closed-channel conformation; homologous competition with radiolabeled AF44
# [3] = target: T1, GluA2Qflip AMPA receptor subunit; experiment: competition; open-channel conformation; homologous competition with radiolabeled AF42
# [4] = target: T1, GluA2Qflip AMPA receptor subunit; experiment: competition; closed-channel conformation; homologous competition with radiolabeled AF42
# T1 sequence (P19491 other isoform, or with tags, fused parts or gaps): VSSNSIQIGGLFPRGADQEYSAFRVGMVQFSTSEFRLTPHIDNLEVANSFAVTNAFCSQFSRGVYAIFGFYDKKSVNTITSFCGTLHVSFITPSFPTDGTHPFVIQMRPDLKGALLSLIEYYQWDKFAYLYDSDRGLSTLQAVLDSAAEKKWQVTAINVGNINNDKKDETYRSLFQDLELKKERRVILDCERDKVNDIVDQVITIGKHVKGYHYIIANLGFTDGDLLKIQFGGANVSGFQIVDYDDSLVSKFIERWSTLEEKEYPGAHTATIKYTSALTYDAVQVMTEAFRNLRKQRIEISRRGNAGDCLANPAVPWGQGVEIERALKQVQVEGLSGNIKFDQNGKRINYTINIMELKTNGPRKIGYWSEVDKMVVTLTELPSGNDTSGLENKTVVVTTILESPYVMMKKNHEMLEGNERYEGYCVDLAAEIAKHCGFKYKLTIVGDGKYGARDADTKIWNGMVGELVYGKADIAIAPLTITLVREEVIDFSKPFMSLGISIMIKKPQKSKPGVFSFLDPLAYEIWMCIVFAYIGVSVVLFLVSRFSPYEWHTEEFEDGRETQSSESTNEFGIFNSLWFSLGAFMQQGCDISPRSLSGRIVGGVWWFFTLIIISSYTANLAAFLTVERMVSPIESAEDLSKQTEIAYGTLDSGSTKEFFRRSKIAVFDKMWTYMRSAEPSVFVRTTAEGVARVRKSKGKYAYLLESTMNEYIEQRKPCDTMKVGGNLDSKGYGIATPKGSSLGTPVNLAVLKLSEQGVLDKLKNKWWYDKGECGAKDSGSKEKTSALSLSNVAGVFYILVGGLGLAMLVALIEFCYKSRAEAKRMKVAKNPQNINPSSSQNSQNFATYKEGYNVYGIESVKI
Binder,Kd [1],Kd [2],Kd [3],Kd [4]
GGGAGAAUUCAACUGCCACGGAUAAUAGCCAAUACUACAACCGU (ssRNA) [AF44 (A22)],48 nM,44 nM,–,–
GGGAACGGUGCCAGUCCGAAACGGAUCGUUAGAGCAUCAGUA (ssRNA) [AF42],–,–,44 nM,57 nM
